Results as given in US20220177604A1 (ARGENX, published 2022).
Positions count from the first letter of the chain named.

B1: VH18E2_S35H (antibody, V domains shown)
VH: QLQLVESGGGLVQPGGSLRLSCAASGFTFSSYVMHWVRQAPGKGLEWVSSIYHDGSHTYYADFVKGRFTISRDNAKNTLYLQMNSLKSEDTAVYYCASGTSYSGSYYYTDPFFGSWGQGTQVTVSS
VL: NFMLTQPSALSVTLGQTARITCQGDRLGSRYIYWYQQKPPQAPVLVIHDDDRRPSGIPERFSGSSSGGTATLTISGAQAEDDGDYYCQSADSSGNPVFGGGTHLTVL
B2: 18B9_VH_S35H_VL_Y49H (antibody, V domains shown)
VH: QVQLVESGGGLVQPGGSLRLSCAASGFTFSSYVMHWVRQAPGKGLEWVSSIYSDGSHTYYADSVKGRFTISRDNAKNTLYLQMNSLKSEDTAVYYCAKNLEHYSGSYYYTDPRYDYWGQGTQVTVSS
VL: SSALTQPSALSVTLGQTAKITCQGGSLGSSYVHWYQQKPGQAPVLVIHDGDSRPSGIPERFSGSSSGGTATLTISGAQAEDEDDYYCQSADSSGNAVFGGGTHLTVL
B3: VH3D1_S35H (antibody, V domains shown)
VH: QLQVVESGGGLVQPGGSLRLSCAASGFTFSSYYMHWVRQAPGKGLEWVSSIYSDGRGSKTFYADSVKGRFTISRDNAKNTLYLQMNSLKSEDTAVYFCAKDLLVAARGSMDYWGQGTQVTVSS
VL: NFMLTQPSAVSVSLEQTARITCQGGTLGSYGAHWYQQKPGQAPVLLIYGDNSRPSGIPERFSGTRSGGTATLTISGAQAEDEADYYCQSFDYSGNAVFGGGTHLTVL
B4: VL3D1_Y49H VL3D1_Q89H (antibody, V domains shown)
VH: B3 VH with H35S
VL: B3 VL with Y48H, Q88H
B5: OMA VH15 - VL3 (antibody, V domains shown)
VH: EVQLVESGGGLVQPGGSLRLSCAVSGYSITSGHRWEWIRQAPGKGLEWVASIHYDGSTNYNPSVKGRITISRDDSKNTFYLQMNSLRAEDTAVYYCARATHYFGHWHFAVWGQGTLVTVSS
VL: DIQLTQSPSSLSASVGDRVTITCRASQSVDYDGDSYMNWYQQKPGKAPKLLIEWGSYLRSGVPSRFSGSGSGTDFTLTISSLQPEDFATYYCQQNAEDPYTFGQGTKVEIK
B6: OmaVH15G55HW100b - VL3D28H (antibody, V domains shown)
VH: B5 VH with G56H, W106H
VL: B5 VL with D32H
notes: also called OmaVH15G55HW100b VL3D25H
B7: OmaVH15G55HW100b - VL3 (antibody, V domains shown)
VH: B5 VH with G56H, W106H
VL: B5 VL
B8: OMA VH15 - VL3D28H (antibody, V domains shown)
VH: B5 VH
VL: B5 VL with D32H
notes: also called OMA VH15 VL3D25H
B9: OmaVH15G55H - VL3D28HS31H (antibody, V domains shown)
VH: B5 VH with G56H
VL: B5 VL with D32H, S35H
B10: Oma VH15W100b - VL3 (antibody, V domains shown)
VH: B5 VH with W106H
VL: B5 VL
B11: OmaVH15G55H - VL3S31H (antibody, V domains shown)
VH: B5 VH with G56H
VL: B5 VL with S35H
B12: OMA VH15 - VL3D28HS31H (antibody, V domains shown)
VH: B5 VH
VL: B5 VL with D32H, S35H
B13: OMA VH15 - VL3S31H (antibody, V domains shown)
VH: B5 VH
VL: B5 VL with S35H
B14: OmaVH15G55H - VL3D28H (antibody, V domains shown)
VH: B5 VH with G56H
VL: B5 VL with D32H
notes: also called OmaVH15G55H VL3D25H
B15: OmaVH15G55H - VL3 (antibody, V domains shown)
VH: B5 VH with G56H
VL: B5 VL

Each binder was assayed against T1, human immunoglobulin E (hIgE) (human, UniProt P01854-1 1-428) (assay: SPR competition, hIgE over hFcεRIα chip, pH 5.5).
T1 construct: also called human IgE; Native IgE (Abcam)
T1 sequence (P01854 whole entry): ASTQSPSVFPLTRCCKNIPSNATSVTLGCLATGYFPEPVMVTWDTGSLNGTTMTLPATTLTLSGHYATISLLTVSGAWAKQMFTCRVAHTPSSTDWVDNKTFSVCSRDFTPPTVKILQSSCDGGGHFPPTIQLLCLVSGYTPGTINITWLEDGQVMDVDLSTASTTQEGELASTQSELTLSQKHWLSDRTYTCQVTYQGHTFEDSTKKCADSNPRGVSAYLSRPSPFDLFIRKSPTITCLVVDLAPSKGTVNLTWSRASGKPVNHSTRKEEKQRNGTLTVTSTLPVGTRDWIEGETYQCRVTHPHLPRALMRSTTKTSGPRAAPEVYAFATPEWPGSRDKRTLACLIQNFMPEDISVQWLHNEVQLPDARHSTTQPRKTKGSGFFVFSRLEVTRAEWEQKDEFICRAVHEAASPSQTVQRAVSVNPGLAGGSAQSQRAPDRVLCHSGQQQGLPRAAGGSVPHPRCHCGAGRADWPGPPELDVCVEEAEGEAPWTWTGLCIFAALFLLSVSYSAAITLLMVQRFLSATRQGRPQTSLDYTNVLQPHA
Procedure: (§1) The assay was performed in HBS-EP pH7.4 or HBS-EP pH 5.5. Raw data were analyzed via BIA evaluation software with a blank subtraction (2-1). […] The IC50 values of each compound were calculated with a non-linear regression (log(agonist) vs. response Variable slope (four parameters)).
(§2) Raw data were analyzed via BIA evaluation software with a blank subtraction (2-1). […] The IC50 values of each compound, calculated with a non-linear regression (log(agonist) vs. response Variable slope (four parameters)).

Row | Binder | IC50 [µg/mL]
1 | B1 | 3.73
2 | B2 | 24.6
3 | B3 | 23
4 | B4 | 15.2

These binders were tested against T1, human immunoglobulin E (hIgE) (assay: competition ELISA, hIgE to hFcεRIα).

Row | Binder | IC50 [nM]
5 | B5 | 0.0803
6 | B6 | 172
7 | B7 | 23.2
8 | B8 | 0.137
9 | B9 | 2.63
10 | B10 | 1.4
11 | B11 | 0.485
12 | B12 | 0.722
13 | B13 | 0.206
14 | B14 | 0.187
15 | B15 | 0.0753

Each binder was assayed against T1, human immunoglobulin E (hIgE) (assay: SPR (Biacore)).

Row | Binder | Ratio pH 7.4/pH6.0 (of KD)
16 | B6 | 9
17 | B7 | 17.2
18 | B8 | 15.6
19 | B9 | 6.4
20 | B10 | 10.2
21 | B11 | 6.8
22 | B12 | 11.7
23 | B13 | 16.7
24 | B14 | 6
25 | B15 | 5.6

The binders below were run against T2, recombinant Motavizumab human IgE (rMota-hIgE) (human, UniProt P01854 1-428) (assay: hIgE binding ELISA, pH 7.4).
T2 construct: also called Recombinant IgE (argenx)
T2 sequence (P01854 other isoform, or with tags, fused parts or gaps limits assumed, form in doubt): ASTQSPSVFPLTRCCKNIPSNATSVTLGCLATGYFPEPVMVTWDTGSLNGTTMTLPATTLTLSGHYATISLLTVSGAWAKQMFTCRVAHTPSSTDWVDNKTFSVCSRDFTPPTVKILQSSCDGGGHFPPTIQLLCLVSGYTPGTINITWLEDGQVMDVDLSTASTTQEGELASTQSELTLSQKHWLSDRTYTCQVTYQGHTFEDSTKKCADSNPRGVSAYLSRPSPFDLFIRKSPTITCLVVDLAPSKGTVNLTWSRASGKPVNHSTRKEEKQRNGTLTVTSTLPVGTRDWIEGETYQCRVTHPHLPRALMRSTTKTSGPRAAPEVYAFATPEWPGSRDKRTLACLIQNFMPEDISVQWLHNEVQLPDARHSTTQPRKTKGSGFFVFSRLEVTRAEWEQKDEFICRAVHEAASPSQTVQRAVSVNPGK
Procedure: (§3) Briefly a Maxisorp plate was coated with recombinant human respiratory syncytial virus protein F (RSV-F) (0.5 μg/mL), then blocked with PBS with 3% BSA and 0.05% Tween. […] After several washing steps at pH 7.4 or pH 5.5, detection of the bound mAbs was carried out with an anti-human Fc-HRP antibody.

Row | Binder | EC50 [µg/mL]
26 | B5 | 0.0202
27 | B6 | 0.0135
28 | B7 | 0.0164
29 | B8 | 0.0163
30 | B9 | 0.0154
31 | B10 | 0.0174
32 | B11 | 0.0153
33 | B12 | 0.0153
34 | B13 | 0.02
35 | B14 | 0.0264
36 | B15 | 0.0255

These binders were tested against T2, recombinant Motavizumab human IgE … (assay: hIgE binding ELISA).
Procedure: as §3

Row | Binder | Ratio EC50 pH 5.5/7.4 | Ratio EC50 pH 7.4/5.5
37 | B5 | 1.1 | 0.93
38 | B6 | 9.6 | 0.1
39 | B7 | 13.5 | 0.07
40 | B8 | 1 | 0.99
41 | B9 | 1.5 | 0.67
42 | B10 | 1.9 | 0.53
43 | B11 | 1.5 | 0.67
44 | B12 | 1.2 | 0.86
45 | B13 | 0.9 | 1.12
46 | B14 | 0.9 | 1.05
47 | B15 | 0.9 | 1.16

The binders below were run against T2, recombinant Motavizumab human IgE … (assay: hIgE binding ELISA, pH 5.5).
Procedure: as §3

Row | Binder | EC50 [µg/mL]
48 | B5 | 0.0217
49 | B6 | 0.13
50 | B7 | 0.221
51 | B8 | 0.0164
52 | B9 | 0.023
53 | B10 | 0.0326
54 | B11 | 0.023
55 | B12 | 0.0178
56 | B13 | 0.0179
57 | B14 | 0.0251
58 | B15 | 0.022

The binders below were run against T1, human immunoglobulin E (hIgE) (assay: SPR competition, hIgE over hFcεRIα chip, pH 7.4).
Procedure: as §1, §2

Row | Binder | IC50 [µg/mL]
59 | B1 | 0.811
60 | B2 | 26.3
61 | B3 | 15.5
62 | B4 | 4.41

The binders below were run against T1, human immunoglobulin E (hIgE) (assay: SPR (Biacore), pH 6.0).

Row | Binder | Kd [nM] | koff [s⁻¹] | kon [M⁻¹ s⁻¹]
63 | B5 | 1.03 | 0.00029 | 281000
64 | B6 | 136 | 0.0648 | 123000
65 | B7 | 150 | 0.0254 | 170000
66 | B8 | 2.62 | 0.000736 | 281000
67 | B9 | 16.1 | 0.00527 | 326000
68 | B10 | 29.8 | 0.00875 | 294000
69 | B11 | 9.07 | 0.00297 | 329000
70 | B12 | 12.8 | 0.00398 | 310000
71 | B13 | 8.93 | 0.00228 | 261000
72 | B14 | 4.39 | 0.00117 | 265000
73 | B15 | 1.8 | 0.000524 | 291000

These binders were tested against T1, human immunoglobulin E (hIgE) (assay: SPR (Biacore), pH 7.4).

Row | Binder | Kd [nM] | koff [s⁻¹] | kon [M⁻¹ s⁻¹]
74 | B5 | < 0.0769 | < 1e-05 | 130000
75 | B6 | 15.2 | 0.00303 | 200000
76 | B7 | 8.69 | 0.00226 | 261000
77 | B8 | 0.168 | 4.41e-05 | 264000
78 | B9 | 2.52 | 0.000722 | 286000
79 | B10 | 2.93 | 0.00103 | 351000
80 | B11 | 1.33 | 0.000402 | 301000
81 | B12 | 1.1 | 0.000334 | 302000
82 | B13 | 0.534 | 0.000166 | 310000
83 | B14 | 0.728 | 0.000206 | 283000
84 | B15 | 0.326 | 0.000105 | 323000
